The values that follow come from US20220372138A1 (IOMX THERAPEUTICS, published 2022).

Assay [1] has as its target T1, human IGSF11 (VSIG3) ECD, His-tagged (human, UniProt Q5DX21 23-241).
T1 construct: in part bought (SinoBiological 13094-H08H); also called HIS-IGSF11; IGSF11-HIS; not shown: His tag
T1 sequence: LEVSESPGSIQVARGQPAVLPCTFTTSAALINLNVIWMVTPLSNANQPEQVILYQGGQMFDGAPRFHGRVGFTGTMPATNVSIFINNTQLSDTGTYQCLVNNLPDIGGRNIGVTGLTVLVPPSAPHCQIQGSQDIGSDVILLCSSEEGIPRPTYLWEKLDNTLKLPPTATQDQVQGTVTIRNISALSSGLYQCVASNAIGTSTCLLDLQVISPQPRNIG
Briefly: IgG1 ELISA EC50 0.05-1 nM.

Assay [2] concerns the target T2, extracellular domain (ECD) of human IGSF11 (VSIG3), recombinant (human, UniProt Q5DX21 23-241).
T2 construct: biotinylated where captured on streptavidin; tags of the reagent not always stated; also called IGSF11 (ECD domain); ECD-IGSF11
T2 sequence: T1 sequence
Kind of assay: SPR.

Assay [3] addresses T2, extracellular domain (ECD) of human …. Kind of assay: ELISA RFU>1.0.
For assay [4], the target named is T3, ECD of murine IGSF11, recombinant biotinylated (mouse, UniProt P0C673 23-240).
T3 construct: whole entry named; also called Mouse IGSF11
T3 sequence: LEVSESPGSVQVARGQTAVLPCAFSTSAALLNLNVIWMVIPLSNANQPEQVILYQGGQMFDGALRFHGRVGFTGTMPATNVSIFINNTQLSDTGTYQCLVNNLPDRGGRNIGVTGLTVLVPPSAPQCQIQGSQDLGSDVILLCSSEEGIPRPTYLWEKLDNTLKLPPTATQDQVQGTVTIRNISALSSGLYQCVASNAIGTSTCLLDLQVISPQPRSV
Briefly: ELISA RFU>1.0.

The target of assay [5] is T1, human IGSF11 (VSIG3) ECD, His-tagged. Kind of assay: IgG1 ELISA EC50 0.02-0.05 nM.
Assay [6] concerns the target T4, murine IGSF11 expressed on cells (mouse, UniProt P0C673 23-428).
T4 construct: MC38-IGSF11, CT26-IGSF11, MC38-wt (naturally expresses murine IGSF11)
T4 sequence: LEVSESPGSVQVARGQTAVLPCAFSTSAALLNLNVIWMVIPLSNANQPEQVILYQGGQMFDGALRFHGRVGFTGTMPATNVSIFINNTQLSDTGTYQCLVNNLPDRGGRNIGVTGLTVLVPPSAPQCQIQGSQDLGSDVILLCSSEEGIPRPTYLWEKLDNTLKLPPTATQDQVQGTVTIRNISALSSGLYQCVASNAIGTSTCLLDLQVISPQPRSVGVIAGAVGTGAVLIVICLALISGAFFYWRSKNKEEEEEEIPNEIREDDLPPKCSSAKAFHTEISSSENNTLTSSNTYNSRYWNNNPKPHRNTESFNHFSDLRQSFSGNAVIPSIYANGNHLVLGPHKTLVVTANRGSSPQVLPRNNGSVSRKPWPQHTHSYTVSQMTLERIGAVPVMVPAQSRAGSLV
Kind of assay: IgG FACS MC38-IGSF11.
From the text: (§1) Unbound antibodies were removed by washing the cells three time with FACS buffer. Bound antibodies were detected with a mouse anti-human IgG antibody conjugated with AlexaFluor647.

Assay [7] has as its target T4, murine IGSF11 expressed on cells. Kind of assay: IgG FACS CT26-IGSF11.
From the text: as §1
Assay [8] deals with T5, human IGSF11 (VSIG3) expressed on cells (human, UniProt Q5DX21 23-431).
T5 sequence: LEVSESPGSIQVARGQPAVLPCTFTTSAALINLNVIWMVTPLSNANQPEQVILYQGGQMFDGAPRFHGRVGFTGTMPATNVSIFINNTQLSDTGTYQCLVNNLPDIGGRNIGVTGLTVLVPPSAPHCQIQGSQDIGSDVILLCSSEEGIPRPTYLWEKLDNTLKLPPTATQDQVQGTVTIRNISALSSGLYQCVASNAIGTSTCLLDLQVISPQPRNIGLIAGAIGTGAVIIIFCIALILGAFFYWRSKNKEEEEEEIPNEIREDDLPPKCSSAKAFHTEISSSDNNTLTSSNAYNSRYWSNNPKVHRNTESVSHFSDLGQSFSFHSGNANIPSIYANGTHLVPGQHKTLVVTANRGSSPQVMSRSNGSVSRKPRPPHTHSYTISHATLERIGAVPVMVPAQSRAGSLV
Briefly: FACS, DMS 273 cells with scrambled control siRNA (SC).

The target in assay [9] is T5, human IGSF11 (VSIG3) expressed on cells. Briefly: FACS, M579-A2-luc cells with IGSF11 siRNA (KD, knock-down control).
Assay [10] has the same target. Briefly: IgG1 FACS HEK-OE.
For assay [11] the target is unchanged. Briefly: FACS, DMS 273 cells with IGSF11 siRNA (KD, knock-down control).
The target is the same in assay [12]. Kind of assay: FACS, M579-A2-luc cells with scrambled control siRNA (SC).
Assay [13] has as its target T6, full-length ECD of human IGSF11 fused to murine Fc (human, UniProt Q5DX21 23-241).
T6 construct: also called Fc-fusion IGSF11 ECD; not shown: murine Fc
T6 sequence: T1 sequence
Kind of assay: IgG ELISA.

Assay [14] addresses T7, IgC2 domain of human IGSF11 fused to murine IgG2a Fc (human, UniProt Q5DX21 137-241).
T7 construct: not shown: murine IgG2a Fc-region
T7 sequence: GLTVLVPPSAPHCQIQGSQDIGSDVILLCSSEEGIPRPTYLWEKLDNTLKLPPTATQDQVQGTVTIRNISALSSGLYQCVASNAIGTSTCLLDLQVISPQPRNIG
Briefly: IgG ELISA.

Changes are numbered by the printed parent chain. Where only a bound is given, the exact number is not on record here.

B1: A-023 (IgG1 format) (antibody, V domains shown)
VH: QVQLVQSGAEVKKPGSSVKVSCKASGGTFSSYAISWVRQAPGQGLEWMGGIIPIFGTANYAQKFQGRVTITADESTSTAYMELSSLRSEDTAVYYCARPKYSSGWFYYYGMDVWGQGTTVTVSS
VL: QSVLTQPPSVSAAPGQKVTISCSGSSSNIGNNYVSWYQQLPGTAPKLLIYDNNKRPSGIPDRFSGSKSGTSATLGITGLQTGDEADYYCGTWDSSLSVVFGGGTKLTVL
notes: human IgG1 format
For B1, in [1], the EC50 lay in the range of 0.05 to 1 nM.

B2: A-034 (IgG1 format) (antibody, V domains shown)
VH: QMQLVQSGGGLVKPGGSLRLSCAASGFTFSSYTMNWVRQAPGKGLEWVSSISSIGTYIYYADSVKGRFTISRDNAKNSLYLQMNSLRAEDTAVYYCARVLLSGSYYGYFDSWGQGTLVTVSS
VL: QSVLTQPPSVSGAPGQRVTISCTGSSSNIGAGYDVHWYQQLPGTAPKLFIYGNSNRPSGVPDRFSGSKSGTSASLAITGLQAEDEADYYCQSYDSSLSGYVFGTGTKVTVL
notes: human IgG1 format
Take B2: the dissociation constant (Kd) in [2] was in the range of 250 to 500 nM. For the same molecule, the EC50 in [1] lay in the range of 0.05 to 1 nM.

B3: A-029 (IgG1 format) (antibody, V domains shown)
VH: QVQLVQSGAEVKKPGSSVKVSCKASGGTFSSYAISWVRQAPGQGLEWMGGIIPIFGTANYAQKFQGRVTITADESTGTAYMELSSLRSEDTAVYYCARSYYYYYGMDVWGQGTTVTVSS
VL: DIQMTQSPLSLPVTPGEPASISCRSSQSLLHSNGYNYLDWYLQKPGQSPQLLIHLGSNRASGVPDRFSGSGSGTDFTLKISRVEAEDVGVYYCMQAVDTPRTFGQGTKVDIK
notes: human IgG1 format
The molecule B3 registered an EC50 in assay [1] of 0.05 to 1 nM.

B4: A-026 (scFv format) (scFv, V domains shown)
VH: QVQLQESGPGLVKPSQTLSLTCTVSGGSISSGGYYWSWIRQHPGKGLEWIGYIYYSGSTYYNPSLKSRVTISVDTSKNQFSLKLSSVTAADTAVYYCASWSLGTSNHGWFDPWGQGTLVTVSS
VL: QSVLTQPPSASGTPGQRVTISCSGSSSNIGSNTVNWYQQLPGTAPKLLISDNNNRPSGVPDRFSGSKSGTSASLAITGLQAEDEADYYCQSYDSNLSGWVFGGGTKLTVL
notes: scFv
In the case of B4, the “ELISA binding signal (RFU)” value in assay [3] and in [4] was greater than 1 rfu each time.

B5: A-025 (IgG1 format) (antibody, V domains shown)
VH: QVQLVQSGAEVKKPGSSVKVSCKASGGTFSSYAISWVRQAPGQGLEWMGGIIPIFGTANYAQKFQGRVTITADESTSTAYMELTSLRSEDTAVYYCARGGWLRQNWFDPWGQGTLVTVSS
VL: SSELTQDPAVSVALGQTVRITCQGDSLRSYYASWYQQKPGQAPVLVIYGKNNRPSGIPDRFSGSSSGNTASLTITGAQAEDEADYYCNSRDSSGNHPRVFGGGTKLTVL
notes: human IgG1 format
In assay [1], B5 displayed a 50% effective concentration (EC50) of 0.05 to 1 nM.

B6: A-033 (IgG1 format) (antibody, V domains shown)
VH: QVQLVQSGAEVKKPGASVKVSCKASGYTFTSYGISWVRQAPGQGLEWMGWISAYNGNTNYAQKLQGRVTMTTDTSTSTAYMELRSLRSDDTAVYYCARDHSIVGATTFDYWGQGTLVTVSS
VL: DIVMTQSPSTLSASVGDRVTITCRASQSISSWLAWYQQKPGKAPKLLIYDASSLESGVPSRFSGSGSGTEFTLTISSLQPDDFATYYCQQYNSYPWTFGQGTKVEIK
notes: human IgG1 format
The molecule B6 registered an EC50 in [5] of 0.02 to 0.05 nM.

B7: C-016 (IgG1 format) (antibody, V domains shown)
VH: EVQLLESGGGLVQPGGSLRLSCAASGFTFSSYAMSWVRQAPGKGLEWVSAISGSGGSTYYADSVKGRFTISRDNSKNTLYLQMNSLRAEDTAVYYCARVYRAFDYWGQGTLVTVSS
VL: ASVLTQPPSVSAAPGQKVTISCSGSSSNIGNNYVSWYQQLPGTAPKLLIYDNNKRPSGIPDRFSGSKSGTSATLGITGLQAEDEADYYCHLYTEAESHWVFGGGTKLTVL
As for B7, the concentration giving a half-maximal response (EC50) in assay [6] fell in the range of 50 to 100 nM; in assay [7], 20 to 50 nM.

B8: A-027 (IgG1 format) (antibody, V domains shown)
VH: QVQLVQSGAEVKKPGSSVKVSCKASGGTFSSYAISWVRQAPGQGLEWMGGIIPIFGTANYAQKFQGRVTITADKSTSTAYMELSSLRSEDTAVYYCARARGSTWGYFDYWGQGTLVTVSS
VL: EIVLTQSPASLSLSPGERVTLSCRASQSVSNYLAWYQQKPGQAPRLLIYDASNRATGIPARFSGSGSGTDFTLTISSLEPEDFAVYYCQQRDNWPLTFGGGTKVEIK
notes: human IgG1 format
Consider B8, for which the “% binding (FACS heat-map)” value is 14.3% in assay [8], 2.5% in assay [9], 2.63% in assay [11] and 3.32% in [12]. Further, the concentration giving a half-maximal response (EC50) in [10] is greater than 50 nM; in assay [13], 1 to 20 nM; in assay [14] it was 1 to 20 nM.

B9: A-009 (IgG1 format) (antibody, V domains shown)
VH: B8 VH with K74E, A99G, S102F, T103G, W104E, G105L
VL: ETTLTQSPATLSVSPGERATLSCRASQGVRSNIAWYQQKPGQAPRLLIYDSSTRATGIPARFSGSGSGTEFTLTISSLQSEDFAVYSCQQYKNWPRTFGQGTKVEIK
notes: human IgG1 format
As to B9, the EC50 in [1] is 0.05 to 1 nM.

B10: A-003 (IgG1 format) (antibody, V domains shown)
VH: VQLVQSGAEVKKPGSSVKVSCKASGGTFSSYAISWVRQAPGQGLEWMGGIIPIFGTANYAQKFQGRVTITADESTSTAYMELSSLRSEDTAVYYCASPRIQLWAAGGFDYWGQGTLVTVSS
VL: QSALTQPASVSGSPGQSITISCTGTSSDVGGYNLVSWYQQHPGKAPKLMIYDVSNRPSGVSNRFSGSKSGNTASLTISGLQAEDEADYYCSSFTTSTTLVFGGGTKLTVL
notes: human IgG1 format
Molecule B10 registered a concentration giving a half-maximal response (EC50) in [1] of 0.05 to 1 nM.

B11: A-008 (IgG1 format) (antibody, V domains shown)
VH: QLQLQESGPGLVKPSETLSLTCTVSGGSISSSGYYWGWIRQPPGKGLEWIGSIYYSGSTYYNPSLKSRVTISVDTSKNQFSLKLSSVTAADTAVYYCARHRVRFGEFDAFDIWGQGTMVTVSS
VL: QAVLTQPPSVSGAPGERVTLSCTGTSSNVGADFDVHWYQQFPGTAPRLLIFGSDNRPSGVPDRFSGSKSGTSASLAITGLQVEDEADYYCQAYDVRLSGWVFGGGTKLTVL
notes: human IgG1 format
On to B11, for which, in [5], the half-maximal effective concentration (EC50) fell in the range of 0.02 to 0.05 nM.

B12: A-008 (scFv format) (scFv, V domains shown)
VH: B11 VH
VL: B11 VL
notes: scFv
As to B12, the “ELISA binding signal (RFU)” value in assay [3] and in assay [4] was greater than 1 rfu each time.
